# Where no end group is shown, it is not given here. [ ]: non-standard residue; d: D form. pT = C[C@@H](OP(=O)(O)O)[C@H](N)C(=O)O
# B1: U24-6B(1-15), 15-residue peptide of the N-terminal region of U24 from HHV-6B (peptide)
# peptide: MDRPRTPPPSYSEVL
# notes: source: synthetic peptide (Fmoc solid phase, C18 HPLC purified)
# B2: pU24-6A(1-15), U24-6A peptide with phospho-threonine 6 (peptide)
# peptide: MDPPR[pT]PPPSYSEVL
# notes: source: synthetic peptide, bought: Genscript
# B3: U24-6A(1-15), 15-residue peptide of the N-terminal region of U24 from HHV-6A (peptide)
# peptide: MDPPRTPPPSYSEVL
# notes: as for B1
# B4: pU24-6B(1-15), U24-6B peptide with phospho-threonine 6 (peptide)
# peptide: MDRPR[pT]PPPSYSEVL
# notes: as for B2
# Tests used:
# [1] = target: human neural precursor cell expressed developmentally down-regulated protein 4-like WW3* domain (hNedd4L-WW3*) (human, UniProt Q96PU5 497-530); test: ITC; conditions: both partners purified
# Chain of human neural precursor cell expressed developmentally down-regulated protein 4-like WW3* domain (hNedd4L-WW3*) (Q96PU5 497-530): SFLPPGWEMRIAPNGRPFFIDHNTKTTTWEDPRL
# [2] = target: T1, SH3 domain of human Fyn (Fyn-SH3), 15N-labelled (human, UniProt P06241 82-142); test: NMR titration; conditions: both partners purified
# T1 construct: also called 15N-Fyn-SH3
# T1 sequence (P06241 82-142): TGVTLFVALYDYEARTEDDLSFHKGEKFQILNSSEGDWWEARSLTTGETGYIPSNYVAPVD
binder,measurement,setting,value
B1,Kd,[1],8.9 µM
same,Kd,[2],500 ± 200 µM
B2,Kd,[2],≥ 12000 µM
B3,Kd,[1],8.5 µM
B4,Kd,[2],≥ 5000 µM

# — publication PMC9696605 (Viruses, 2022)
